According to US6512102:

B1: C-terminally truncated CKIε (protein)
chain: MELRVGNKYRLGRKIGSGSFGDIYLGANIASGEEVAIKLECVKTKHPQLHIESKFYKMMQGGVGIPSIKWCGAEGDYNVMVMELLGPSLEDLFNFCSRKFSLKTVLLLADQMISRIEYIHSKNFIHRDVKPDNFLMGLGKKGNLVYIIDFGLAKKYRDARTHQHIPYRENKNLTGTARYASINTHLGIEQSRRDDLESLGYVLMYFNLGSLPWQGLKAATKRQKYERISEKKMSTPIEVLCKGYPSEFSTYLNFCRSLRFDDKPDYSYLRQLFRNLFHRQGFSYDYVFDWNMLKFGAARNPED
B2: mouse casein kinase I epsilon, HA-tagged (CKIε-HA) (protein)
chain: MELRVGNKYRLGRKIGSGSFGDIYLGANIASGEEVAIKLECVKTKHPQLHIESKFYKMMQGGVGIPSIKWCGAEGDYNVMVMELLGPSLEDLFNFCSRKFSLKTVLLLADQMISRIEYIHSKNFIHRDVKPDNFLMGLGKKGNLVYIIDFGLAKKYRDARTHQHIPYRENKNLTGTARYASINTHLGIEQSRRDDLESLGYVLMYFNLGSLPWQGLKAATKRQKYERISEKKMSTPIEVLCKGYPSEFSTYLNFCRSLRFDDKPDYSYLRQLFRNLFHRQGFSYDYVFDWNMLKFGAARNPEDVDRERREHEREERMGQLRGSATRALPPGPPTGATANRLRSAAEPVASTPASRIQQTGNTSPRAISRADRERKVSMRLHRGAPANVSSSDLTGRQEVSRLAASQTSVPFDHLGK

Key:
[1] = biological target: GSK3 (huGSK3myc), P49841
[2] = biological target: Axin
[3] = biological target: β-catenin
β-catenin, sequence (P35222 2-781): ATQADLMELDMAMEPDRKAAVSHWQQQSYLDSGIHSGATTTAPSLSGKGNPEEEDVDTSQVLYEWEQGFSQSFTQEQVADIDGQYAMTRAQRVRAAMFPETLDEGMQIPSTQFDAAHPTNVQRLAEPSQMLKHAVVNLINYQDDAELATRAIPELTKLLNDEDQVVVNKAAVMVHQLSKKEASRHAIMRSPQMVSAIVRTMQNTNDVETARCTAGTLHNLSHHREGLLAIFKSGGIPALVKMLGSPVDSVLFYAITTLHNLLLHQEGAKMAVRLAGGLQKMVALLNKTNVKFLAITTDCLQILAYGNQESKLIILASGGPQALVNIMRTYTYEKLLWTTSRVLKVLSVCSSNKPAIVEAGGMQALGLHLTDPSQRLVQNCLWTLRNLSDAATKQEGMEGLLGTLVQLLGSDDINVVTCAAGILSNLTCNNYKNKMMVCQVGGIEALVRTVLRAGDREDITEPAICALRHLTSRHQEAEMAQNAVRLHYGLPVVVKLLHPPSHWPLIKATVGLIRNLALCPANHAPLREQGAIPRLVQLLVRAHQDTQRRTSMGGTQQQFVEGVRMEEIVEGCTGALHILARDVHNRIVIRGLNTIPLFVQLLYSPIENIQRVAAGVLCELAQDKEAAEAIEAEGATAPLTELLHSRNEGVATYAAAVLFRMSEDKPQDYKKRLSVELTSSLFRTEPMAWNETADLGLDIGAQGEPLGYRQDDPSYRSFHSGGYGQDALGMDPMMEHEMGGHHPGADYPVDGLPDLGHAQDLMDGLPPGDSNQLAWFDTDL

GSK3 (huGSK3myc), P49841, sequence (P49841 whole entry, looked up): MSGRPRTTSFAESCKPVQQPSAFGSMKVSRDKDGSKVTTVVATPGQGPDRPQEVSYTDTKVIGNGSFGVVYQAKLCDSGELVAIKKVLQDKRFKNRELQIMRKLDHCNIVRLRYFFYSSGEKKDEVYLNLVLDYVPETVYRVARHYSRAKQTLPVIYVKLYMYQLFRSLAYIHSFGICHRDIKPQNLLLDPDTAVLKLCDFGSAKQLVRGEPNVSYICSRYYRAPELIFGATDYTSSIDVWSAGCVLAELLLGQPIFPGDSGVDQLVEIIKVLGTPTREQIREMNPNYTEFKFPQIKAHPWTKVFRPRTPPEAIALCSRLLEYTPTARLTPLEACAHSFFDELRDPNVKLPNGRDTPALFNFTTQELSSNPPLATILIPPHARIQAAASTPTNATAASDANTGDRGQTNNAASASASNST

| Protein | in vitro kinase assay (phosphorylation of GSK3) [1] | phosphorylation [2] | in vitro phosphorylation [3] |
| --- | --- | --- | --- |
| B1 | A truncated mutant, CKIε, where the C-terminus was deleted had intact kinase activity. It was immunoprecipitated using anti-HA antibody and mixed with Immunoprecipitated GSK3. | – | – |
| B2 | either purified CKIε protein or immunoprecipitated CKIε phosphorylated purified GSK3 protein as well as immunoprecipitated GSK3 protein | CKIε phosphorylates Axin | CKIε phosphorylates β-catenin in vitro |
